Assay results from PMC7544621 (Structure (London, England : 1993), 2020).

Target: T1, monomeric head domain of HA from H1 A/Solomon Islands/03/2006 (Influenza A virus A/Solomon …)
T1 chain: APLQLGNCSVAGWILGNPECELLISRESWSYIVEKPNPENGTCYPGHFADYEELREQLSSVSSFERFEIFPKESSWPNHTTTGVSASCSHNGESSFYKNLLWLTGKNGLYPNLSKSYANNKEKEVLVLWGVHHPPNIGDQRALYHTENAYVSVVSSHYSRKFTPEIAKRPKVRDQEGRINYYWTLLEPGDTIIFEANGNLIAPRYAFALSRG
Assay: BLI

B1: C05 IgG (anti-influenza human mAb C05) (antibody, V domains shown)
VH: QVQLQESGGGLVQPGESLRLSCVGSGSSFGESTLSYYAVSWVRQAPGKGLEWLSIINAGGGDIDYADSVEGRFTISRDNSKETLYLQMTNLRVEDTGVYYCAKHMSMQQVVSAGWERADLVGDAFDVWGQGTMVTVSS
VL: DIQLTQSPSSLSASVGDRVTLTCQASQDIRKFLNWYQQKPGKGPKLLIYDASNLQRGVPSRFSGGGSGTDFTLIISSLQPEDVGTYYCQQYDGLPFTFGGGTKVVIK
In the case of B1, the Kd is reported as 88 nM.
